Data: PMC7497807

Legend:
Experiment in all cases: fluorescence polarisation
BCOR (aa 1176–1225)-FITC = BCOR (aa 1176–1225)-FITC (UniProt Q6W2J9)
FITC-CBX8 A335V peptide = target: FITC-CBX8 A335V peptide
MBP-AF9 = target: MBP-AF9

Sequence of BCOR (aa 1176–1225)-FITC (Q6W2J9 1176-1225): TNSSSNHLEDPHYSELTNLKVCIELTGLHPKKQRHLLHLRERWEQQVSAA

Kd (BCOR (aa 1176–1225)-FITC)	Kd (FITC-CBX8 A335V peptide)	IC50 (MBP-AF9)	Substance
0.018 µM	0.012 µM		MBP-AF9 (domain or fragment)
		0.096 µM	unlabeled CBX8 A335V peptide
